Measured values reported in patent US20120045438A1 (Janssen / Centocor, published 2012).

B1: Phage # 54 Fab (IL-13-142 library) (Fab, V domains shown)
VH: QVTLKESGPVLVKPTETLTLTCTVSGFSLSTYGMGVGWIRQPPGKALEWLAHIWWDDVKRYNPALKSRLTISKDTSKSQVVLTMTNMDPVDTATYYCARMGSDYDVWFDYWGQGTLVTVSS
VL: DIQMTQSPSTLSASVGDRVTITCRASKSISKYLAWYQQKPGKAPKLLIYSGSTLQSGVPSRFSGSGSGTEFTLTISSLQPDDFATYYCQQHDWGPYTFGGGTKVEIK
notes: Fab on phage pIX
B2: Phage # 29 Fab (IL-13-142 library) (Fab, V domains shown)
VH: QVTLKESGPVLVKPTETLTLTCTVSGFSLSTYGMGVGWIRQPPGKALEWLAHIWWDDVKRYNPALKSRLTISKDTSKSQVVLTMTNMDPVDTATYYCARMGSDYDVWFDYWGQGTLVTVSS
VL: DIQMTQSPSTLSASVGDRVTITCRASKSISKYLAWYQQKPGKAPKLLIYSGSTLQSGVPSRFSGSGSGTEFTLTISSLQPDDFATYYCQQHWMAPYTFGGGTKVEIK
notes: Fab on phage pIX
B3: Phage # 32 Fab (IL-13-142 library) (Fab, V domains shown)
VH: QVTLKESGPVLVKPTETLTLTCTVSGFSLSTYGMGVGWIRQPPGKALEWLAHIWWDDVKRYNPALKSRLTISKDTSKSQVVLTMTNMDPVDTATYYCARMGSDYDVWFDYWGQGTLVTVSS
VL: DIQMTQSPSTLSASVGDRVTITCRASKSISKYLAWYQQKPGKAPKLLIYSGSTLQSGVPSRFSGSGSGTEFTLTISSLQPDDFATYYCQQHLGTPYTFGGGTKVEIK
notes: Fab on phage pIX
B4: Phage # 09 Fab (IL-13-142 library) (Fab, V domains shown)
VH: QVTLKESGPVLVKPTETLTLTCTVSGFSLSTYGMGVGWIRQPPGKALEWLAHIWWDDVKRYNPALKSRLTISKDTSKSQVVLTMTNMDPVDTATYYCARMGSDYDVWFDYWGQGTLVTVSS
VL: DIQMTQSPSTLSASVGDRVTITCRASKSISKYLAWYQQKPGKAPKLLIYSGSTLQSGVPSRFSGSGSGTEFTLTISSLQPDDFATYYCQQHLDVPYTFGGGTKVEIK
notes: Fab on phage pIX
B5: Phage # 01 Fab (IL-13-142 library) (Fab, V domains shown)
VH: QVTLKESGPVLVKPTETLTLTCTVSGFSLSTYGMGVGWIRQPPGKALEWLAHIWWDDVKRYNPALKSRLTISKDTSKSQVVLTMTNMDPVDTATYYCARMGSDYDVWFDYWGQGTLVTVSS
VL: DIQMTQSPSTLSASVGDRVTITCRASKSISKYLAWYQQKPGKAPKLLIYSGSTLQSGVPSRFSGSGSGTEFTLTISSLQPDDFATYYCQQHWWGPYTFGGGTKVEIK
notes: Fab on phage pIX
B6: Phage # 36 Fab (IL-13-142 library) (Fab, V domains shown)
VH: QVTLKESGPVLVKPTETLTLTCTVSGFSLSTYGMGVGWIRQPPGKALEWLAHIWWDDVKRYNPALKSRLTISKDTSKSQVVLTMTNMDPVDTATYYCARMGSDYDVWFDYWGQGTLVTVSS
VL: DIQMTQSPSTLSASVGDRVTITCRASKSISKYLAWYQQKPGKAPKLLIYSGSTLQSGVPSRFSGSGSGTEFTLTISSLQPDDFATYYCQQHELGPYTFGGGTKVEIK
notes: Fab on phage pIX
B7: Phage # 11 Fab (IL-13-142 library) (Fab, V domains shown)
VH: QVTLKESGPVLVKPTETLTLTCTVSGFSLSTYGMGVGWIRQPPGKALEWLAHIWWDDVKRYNPALKSRLTISKDTSKSQVVLTMTNMDPVDTATYYCARMGSDYDVWFDYWGQGTLVTVSS
VL: DIQMTQSPSTLSASVGDRVTITCRASKSISKYLAWYQQKPGKAPKLLIYSGSTLQSGVPSRFSGSGSGTEFTLTISSLQPDDFATYYCQQQDVGPYTFGGGTKVEIK
notes: Fab on phage pIX
B8: Phage # 30 Fab (IL-13-142 library) (Fab, V domains shown)
VH: QVTLKESGPVLVKPTETLTLTCTVSGFSLSTYGMGVGWIRQPPGKALEWLAHIWWDDVKRYNPALKSRLTISKDTSKSQVVLTMTNMDPVDTATYYCARMGSDYDVWFDYWGQGTLVTVSS
VL: DIQMTQSPSTLSASVGDRVTITCRASKSISKYLAWYQQKPGKAPKLLIYSGSTLQSGVPSRFSGSGSGTEFTLTISSLQPDDFATYYCQQHLWGPYTFGGGTKVEIK
notes: Fab on phage pIX
B9: Phage # 06 Fab (IL-13-142 library) (Fab, V domains shown)
VH: QVTLKESGPVLVKPTETLTLTCTVSGFSLSTYGMGVGWIRQPPGKALEWLAHIWWDDVKRYNPALKSRLTISKDTSKSQVVLTMTNMDPVDTATYYCARMGSDYDVWFDYWGQGTLVTVSS
VL: DIQMTQSPSTLSASVGDRVTITCRASKSISKYLAWYQQKPGKAPKLLIYSGSTLQSGVPSRFSGSGSGTEFTLTISSLQPDDFATYYCQQPLTHPYTFGGGTKVEIK
notes: Fab on phage pIX
B10: Phage # 16 Fab (IL-13-142 library) (Fab, V domains shown)
VH: QVTLKESGPVLVKPTETLTLTCTVSGFSLSTYGMGVGWIRQPPGKALEWLAHIWWDDVKRYNPALKSRLTISKDTSKSQVVLTMTNMDPVDTATYYCARMGSDYDVWFDYWGQGTLVTVSS
VL: DIQMTQSPSTLSASVGDRVTITCRASKSISKYLAWYQQKPGKAPKLLIYSGSTLQSGVPSRFSGSGSGTEFTLTISSLQPDDFATYYCQQHVGGPYTFGGGTKVEIK
notes: Fab on phage pIX
B11: Phage # 04 Fab (IL-13-142 library) (Fab, V domains shown)
VH: QVTLKESGPVLVKPTETLTLTCTVSGFSLSTYGMGVGWIRQPPGKALEWLAHIWWDDVKRYNPALKSRLTISKDTSKSQVVLTMTNMDPVDTATYYCARMGSDYDVWFDYWGQGTLVTVSS
VL: DIQMTQSPSTLSASVGDRVTITCRASKSISKYLAWYQQKPGKAPKLLIYSGSTLQSGVPSRFSGSGSGTEFTLTISSLQPDDFATYYCQQQDLGPYTFGGGTKVEIK
notes: Fab on phage pIX
B12: Phage # 10 Fab (IL-13-142 library) (Fab, V domains shown)
VH: QVTLKESGPVLVKPTETLTLTCTVSGFSLSTYGMGVGWIRQPPGKALEWLAHIWWDDVKRYNPALKSRLTISKDTSKSQVVLTMTNMDPVDTATYYCARMGSDYDVWFDYWGQGTLVTVSS
VL: DIQMTQSPSTLSASVGDRVTITCRASKSISKYLAWYQQKPGKAPKLLIYSGSTLQSGVPSRFSGSGSGTEFTLTISSLQPDDFATYYCQQHLWGPYTFGGGTKVEIK
notes: Fab on phage pIX
B13: Phage # 21 Fab (IL-13-142 library) (Fab, V domains shown)
VH: QVTLKESGPVLVKPTETLTLTCTVSGFSLSTYGMGVGWIRQPPGKALEWLAHIWWDDVKRYNPALKSRLTISKDTSKSQVVLTMTNMDPVDTATYYCARMGSDYDVWFDYWGQGTLVTVSS
VL: DIQMTQSPSTLSASVGDRVTITCRASKSISKYLAWYQQKPGKAPKLLIYSGSTLQSGVPSRFSGSGSGTEFTLTISSLQPDDFATYYCQQWSDGPYTFGGGTKVEIK
notes: Fab on phage pIX
B14: Phage # 05 Fab (IL-13-142 library) (Fab, V domains shown)
VH: QVTLKESGPVLVKPTETLTLTCTVSGFSLSTYGMGVGWIRQPPGKALEWLAHIWWDDVKRYNPALKSRLTISKDTSKSQVVLTMTNMDPVDTATYYCARMGSDYDVWFDYWGQGTLVTVSS
VL: DIQMTQSPSTLSASVGDRVTITCRASKSISKYLAWYQQKPGKAPKLLIYSGSTLQSGVPSRFSGSGSGTEFTLTISSLQPDDFATYYCQQHVSGPYTFGGGTKVEIK
notes: Fab on phage pIX
B15: Phage # 22 Fab (IL-13-142 library) (Fab, V domains shown)
VH: QVTLKESGPVLVKPTETLTLTCTVSGFSLSTYGMGVGWIRQPPGKALEWLAHIWWDDVKRYNPALKSRLTISKDTSKSQVVLTMTNMDPVDTATYYCARMGSDYDVWFDYWGQGTLVTVSS
VL: DIQMTQSPSTLSASVGDRVTITCRASKSISKYLAWYQQKPGKAPKLLIYSGSTLQSGVPSRFSGSGSGTEFTLTISSLQPDDFATYYCQQHDPGPYTFGGGTKVEIK
notes: Fab on phage pIX
B16: Phage # 15 Fab (IL-13-142 library) (Fab, V domains shown)
VH: QVTLKESGPVLVKPTETLTLTCTVSGFSLSTYGMGVGWIRQPPGKALEWLAHIWWDDVKRYNPALKSRLTISKDTSKSQVVLTMTNMDPVDTATYYCARMGSDYDVWFDYWGQGTLVTVSS
VL: DIQMTQSPSTLSASVGDRVTITCRASKSISKYLAWYQQKPGKAPKLLIYSGSTLQSGVPSRFSGSGSGTEFTLTISSLQPDDFATYYCQQPLDAPYTFGGGTKVEIK
notes: Fab on phage pIX
B17: Phage # 13 Fab (IL-13-142 library) (Fab, V domains shown)
VH: QVTLKESGPVLVKPTETLTLTCTVSGFSLSTYGMGVGWIRQPPGKALEWLAHIWWDDVKRYNPALKSRLTISKDTSKSQVVLTMTNMDPVDTATYYCARMGSDYDVWFDYWGQGTLVTVSS
VL: DIQMTQSPSTLSASVGDRVTITCRASKSISKYLAWYQQKPGKAPKLLIYSGSTLQSGVPSRFSGSGSGTEFTLTISSLQPDDFATYYCQQHEWGPYTFGGGTKVEIK
notes: Fab on phage pIX
B18: Phage # 27 Fab (IL-13-142 library) (Fab, V domains shown)
VH: QVTLKESGPVLVKPTETLTLTCTVSGFSLSTYGMGVGWIRQPPGKALEWLAHIWWDDVKRYNPALKSRLTISKDTSKSQVVLTMTNMDPVDTATYYCARMGSDYDVWFDYWGQGTLVTVSS
VL: DIQMTQSPSTLSASVGDRVTITCRASKSISKYLAWYQQKPGKAPKLLIYSGSTLQSGVPSRFSGSGSGTEFTLTISSLQPDDFATYYCQQHNDSPYTFGGGTKVEIK
notes: Fab on phage pIX
B19: Phage # 35 Fab (IL-13-142 library) (Fab, V domains shown)
VH: QVTLKESGPVLVKPTETLTLTCTVSGFSLSTYGMGVGWIRQPPGKALEWLAHIWWDDVKRYNPALKSRLTISKDTSKSQVVLTMTNMDPVDTATYYCARMGSDYDVWFDYWGQGTLVTVSS
VL: DIQMTQSPSTLSASVGDRVTITCRASKSISKYLAWYQQKPGKAPKLLIYSGSTLQSGVPSRFSGSGSGTEFTLTISSLQPDDFATYYCQQHDRGPYTFGGGTKVEIK
notes: Fab on phage pIX
B20: Phage # 18 Fab (IL-13-142 library) (Fab, V domains shown)
VH: QVTLKESGPVLVKPTETLTLTCTVSGFSLSTYGMGVGWIRQPPGKALEWLAHIWWDDVKRYNPALKSRLTISKDTSKSQVVLTMTNMDPVDTATYYCARMGSDYDVWFDYWGQGTLVTVSS
VL: DIQMTQSPSTLSASVGDRVTITCRASKSISKYLAWYQQKPGKAPKLLIYSGSTLQSGVPSRFSGSGSGTEFTLTISSLQPDDFATYYCQQWDGGPYTFGGGTKVEIK
notes: Fab on phage pIX
B21: Phage # 31 Fab (IL-13-142 library) (Fab, V domains shown)
VH: QVTLKESGPVLVKPTETLTLTCTVSGFSLSTYGMGVGWIRQPPGKALEWLAHIWWDDVKRYNPALKSRLTISKDTSKSQVVLTMTNMDPVDTATYYCARMGSDYDVWFDYWGQGTLVTVSS
VL: DIQMTQSPSTLSASVGDRVTITCRASKSISKYLAWYQQKPGKAPKLLIYSGSTLQSGVPSRFSGSGSGTEFTLTISSLQPDDFATYYCQQHFRRPYTFGGGTKVEIK
notes: Fab on phage pIX

molecular target: T1, human IL-13 R130Q variant (R110Q of the mature chain) (human, UniProt P35225 35-146, Biotinylated on amines (NHS-LC-biotin, 4:1) in ELISA, panning and competition assays. The letters are unchanged.); test: single-point (10 nM) phage Fab ELISA on biotinylated IL-13 R130Q
T1 construct: R130Q counts from Met 1 of the signal peptide, R110Q on the mature chain; Bought from Peprotech; also called IL-13 R110Q; b-R130Q

Binder	% of Lc16Hc7
B1	361%
B2	182%
B3	228%
B4	171%
B5	222%
B6	196%
B7	229%
B8	140%
B9	232%
B10	206%
B11	127%
B12	318%
B13	276%
B14	320%
B15	313%
B16	154%
B17	196%
B18	238%
B19	296%
B20	231%
B21	288%
